Consider 1 variant from IntAct's records for PubMed 23290633.

Sequences and labels used below:
B1: Magnesium transporter NIPA4 (Homo sapiens), Q0D2K0 (parent)
chain: MELRVSNTSCENGSLLHLYCSSQEVLCQIVNDLSPEVPSNATFHSWQERIRQNYGFYIGLGLAFLSSFLIGSSVILKKKGLLRLVATGATRAVDGGFGYLKDAMWWAGFLTMAAGEVANFGAYAFAPATVVTPLGALSVLISAILSSYFLRESLNLLGKLGCVICVAGSTVMVIHAPEEEKVTTIMEMASKMKDTGFIVFAVLLLVSCLILIFVIAPRYGQRNILIYIIICSVIGAFSVAAVKGLGITIKNFFQGLPVVRHPLPYILSLILALSLSTQVNFLNRALDIFNTSLVFPIYYVFFTTVVVTSSIILFKEWYSMSAVDIAGTLSGFVTIILGVFMLHAFKDLDISCASLPHMHKNPPPSPAPEPTVIRLEDKNVLVDNIELASTSSPEEKPKVFIIHS

This assay covers variants of B1. Particulars: with SLC27A4, Q6P1M0.
SLC27A4, Q6P1M0, sequence (Q6P1M0 whole entry, looked up): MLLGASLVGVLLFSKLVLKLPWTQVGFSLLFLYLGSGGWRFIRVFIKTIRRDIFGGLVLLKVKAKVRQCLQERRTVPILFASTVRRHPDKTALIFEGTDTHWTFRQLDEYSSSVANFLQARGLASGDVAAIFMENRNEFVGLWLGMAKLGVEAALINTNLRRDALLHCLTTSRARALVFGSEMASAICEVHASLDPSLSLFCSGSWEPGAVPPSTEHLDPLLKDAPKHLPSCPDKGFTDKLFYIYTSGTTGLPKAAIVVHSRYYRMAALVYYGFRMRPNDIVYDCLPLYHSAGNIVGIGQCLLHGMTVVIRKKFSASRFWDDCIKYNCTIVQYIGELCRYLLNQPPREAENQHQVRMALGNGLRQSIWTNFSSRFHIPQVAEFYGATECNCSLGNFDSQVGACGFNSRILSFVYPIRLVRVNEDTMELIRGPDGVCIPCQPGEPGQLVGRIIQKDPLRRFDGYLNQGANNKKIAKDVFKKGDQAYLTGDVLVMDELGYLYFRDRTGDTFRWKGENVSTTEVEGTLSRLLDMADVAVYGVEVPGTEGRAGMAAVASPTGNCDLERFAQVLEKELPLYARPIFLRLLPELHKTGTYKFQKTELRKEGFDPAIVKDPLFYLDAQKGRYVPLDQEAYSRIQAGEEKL
In the case of MELRVSNTSCENGSLLHLYCSSQEVLCQIVNDLSPEVPSNATFHSWQERIRQNYGFYIGLGLAFLSSFLIGSSVILKKKGLLRLVATGATRAVDGGFGYLKDAMWWAGFLTMADGEVANFGAYAFAPATVVTPLGALSVLISAILSSYFLRESLNLLGKLGCVICVAGSTVMVIHAPEEEKVTTIMEMASKMKDTGFIVFAVLLLVSCLILIFVIAPRYGQRNILIYIIICSVIGAFSVAAVKGLGITIKNFFQGLPVVRHPLPYILSLILALSLSTQVNFLNRALDIFNTSLVFPIYYVFFTTVVVTSSIILFKEWYSMSAVDIAGTLSGFVTIILGVFMLHAFKDLDISCASLPHMHKNPPPSPAPEPTVIRLEDKNVLVDNIELASTSSPEEKPKVFIIHS [A114D], the “effect of a mutation on the interaction” value is listed as “decreasing interaction”.
